Results: article PMC11074131, “ASS1 inhibits triple-negative breast cancer by regulating PHGDH stability and de novo serine synthesis” (Cell Death & Disease, 2024)

B2: GST-ASS1 (natural protein, human, UniProt P00966 1-412, looked up)
chain: MSSKGSVVLAYSGGLDTSCILVWLKEQGYDVIAYLANIGQKEDFEEARKKALKLGAKKVFIEDVSREFVEEFIWPAIQSSALYEDRYLLGTSLARPCIARKQVEIAQREGAKYVSHGATGKGNDQVRFELSCYSLAPQIKVIAPWRMPEFYNRFKGRNDLMEYAKQHGIPIPVTPKNPWSMDENLMHISYEAGILENPKNQAPPGLYTKTQDPAKAPNTPDILEIEFKKGVPVKVTNVKDGTTHQTSLELFMYLNEVAGKHGVGRIDIVENRFIGMKSRGIYETPAGTILYHAHLDIEAFTMDREVRKIKQGLGLKFAELVYTGFWHSPECEFVRHCIAKSQERVEGKVQVSVLKGQVYILGRESPLSLYNEELVSMNVQGDYEPTDATGFININSLRLKEYHRLQSKVTAK
notes: also called recombinant GST-ASS1; source: E. coli BL21 DE3, purified

How the values were obtained:
Details in all cases: both partners purified
GST-ASS1 = target: B2; assay: pull-down; purified GST-ASS1 immobilised on MagneGST Glutathione Particles; purified His-PHGDH or its truncated forms added overnight at 4 °C; washed with PBST; western blot; GST as negative control
His-PHGDH = target: T1, His-PHGDH (UniProt O43175 1-533); assay: as above
T1 construct: also called PHGDH-F; full-length PHGDH; source: E. coli BL21 DE3, purified
T1 sequence (looked up): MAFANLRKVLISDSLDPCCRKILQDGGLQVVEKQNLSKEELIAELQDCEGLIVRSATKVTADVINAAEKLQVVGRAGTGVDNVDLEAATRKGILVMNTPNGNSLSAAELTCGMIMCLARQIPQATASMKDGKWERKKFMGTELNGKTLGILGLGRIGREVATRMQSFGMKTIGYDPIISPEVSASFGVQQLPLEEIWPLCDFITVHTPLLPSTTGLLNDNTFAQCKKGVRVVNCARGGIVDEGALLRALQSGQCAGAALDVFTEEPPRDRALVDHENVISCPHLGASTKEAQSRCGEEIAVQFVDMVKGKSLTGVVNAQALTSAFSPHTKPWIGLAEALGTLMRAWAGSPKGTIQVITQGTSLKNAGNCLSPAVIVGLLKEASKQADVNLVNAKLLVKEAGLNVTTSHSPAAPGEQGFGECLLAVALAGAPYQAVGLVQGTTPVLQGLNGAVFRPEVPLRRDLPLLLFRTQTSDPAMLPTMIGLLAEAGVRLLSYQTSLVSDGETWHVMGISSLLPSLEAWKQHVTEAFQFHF

GST-PHGDH = target: T2, GST-PHGDH (UniProt O43175 1-533); assay: pull-down; purified GST-PHGDH immobilised on MagneGST Glutathione Particles; purified His-ASS1 added overnight at 4 °C; washed with PBST; western blot; GST as negative control
T2 construct: also called recombinant GST-PHGDH; source: E. coli BL21 DE3, purified
T2 sequence (looked up): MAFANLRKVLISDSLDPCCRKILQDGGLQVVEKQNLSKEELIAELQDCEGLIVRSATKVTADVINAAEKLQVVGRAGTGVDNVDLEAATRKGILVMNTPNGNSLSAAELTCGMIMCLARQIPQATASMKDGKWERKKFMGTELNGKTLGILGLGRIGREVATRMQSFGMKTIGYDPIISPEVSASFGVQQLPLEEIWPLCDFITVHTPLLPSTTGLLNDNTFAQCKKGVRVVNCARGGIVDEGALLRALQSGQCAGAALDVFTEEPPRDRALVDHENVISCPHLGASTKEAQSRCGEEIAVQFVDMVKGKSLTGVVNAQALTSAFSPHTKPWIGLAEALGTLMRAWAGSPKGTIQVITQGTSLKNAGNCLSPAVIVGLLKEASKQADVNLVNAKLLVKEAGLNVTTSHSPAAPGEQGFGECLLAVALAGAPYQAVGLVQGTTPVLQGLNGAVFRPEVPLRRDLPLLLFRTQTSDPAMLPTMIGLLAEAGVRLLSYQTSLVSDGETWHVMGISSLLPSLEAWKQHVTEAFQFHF

B1: PHGDH N-314 (catalytic domain) (domain or fragment, UniProt O43175 1-314, looked up)
chain: MAFANLRKVLISDSLDPCCRKILQDGGLQVVEKQNLSKEELIAELQDCEGLIVRSATKVTADVINAAEKLQVVGRAGTGVDNVDLEAATRKGILVMNTPNGNSLSAAELTCGMIMCLARQIPQATASMKDGKWERKKFMGTELNGKTLGILGLGRIGREVATRMQSFGMKTIGYDPIISPEVSASFGVQQLPLEEIWPLCDFITVHTPLLPSTTGLLNDNTFAQCKKGVRVVNCARGGIVDEGALLRALQSGQCAGAALDVFTEEPPRDRALVDHENVISCPHLGASTKEAQSRCGEEIAVQFVDMVKGKSLTG
notes: also called catalytic domain of PHGDH; source: E. coli BL21 DE3, purified
binding result (GST-ASS1): binds

B2
binding result (His-PHGDH): binds

B3: His-ASS1 (natural protein, human, UniProt P00966 1-412, looked up)
chain: MSSKGSVVLAYSGGLDTSCILVWLKEQGYDVIAYLANIGQKEDFEEARKKALKLGAKKVFIEDVSREFVEEFIWPAIQSSALYEDRYLLGTSLARPCIARKQVEIAQREGAKYVSHGATGKGNDQVRFELSCYSLAPQIKVIAPWRMPEFYNRFKGRNDLMEYAKQHGIPIPVTPKNPWSMDENLMHISYEAGILENPKNQAPPGLYTKTQDPAKAPNTPDILEIEFKKGVPVKVTNVKDGTTHQTSLELFMYLNEVAGKHGVGRIDIVENRFIGMKSRGIYETPAGTILYHAHLDIEAFTMDREVRKIKQGLGLKFAELVYTGFWHSPECEFVRHCIAKSQERVEGKVQVSVLKGQVYILGRESPLSLYNEELVSMNVQGDYEPTDATGFININSLRLKEYHRLQSKVTAK
notes: also called recombinant His-ASS1; source: E. coli BL21 DE3, purified
binding result (GST-PHGDH): binds
